Results on 13 molecules are retold here after patent US20110008841A1 (Amgen, published 2011).

Substitutions are numbered along the chain they refer to.

To fix the notation:
B1: Germline version A (antibody, V domains shown)
VH: QVQLVQSGAEVKKPGASVKVSCKASGYTFTRYGISWVRQAPGQGLEWMGWISTYSGNTNYAQKLQGRVTMTTDTSTSTAYMELRSLRSDDTAVYYCARRQLYFDYWGQGTLVTVSS
VL: EIVMTQSPATLSVSPGERATLSCRASQSVSSNLAWYQQKPGQAPRLLIYDASTRATGIPARFSGSGSGTDFTLTISSLQSEDFAVYYCQQYDNWPLTFGGGTKVEIK
B2: Germline version B (antibody, V domains shown)
VH: B1 VH
VL: B1 VL with D70E
B3: AMH5/AML5 (antibody, V domains shown)
VH: QVQLQESGPGLVKPSETLPLTCTVSGGSIRSYYWSWIRQPAGKGLEWIGRIYRSGNTIYNPSLKSRVTMSIDTSKNQFSLTLSSVTAADTAVYYCARENYSESSGLYYYYGMDVWGQGTTVTVSS
VL: DIQMTQSPSSLSASVGDRVTITCRASQGIRNDLGWYQQKPGKAPKRLIYAASSFQSGVPSRFSGSGSGTGFTLTISSLQPEDFATYYCLQHNSYPPTFGQGTKVEIK
notes: also called AM-5
B4: AMH1/AML1 (antibody, IgG2, V domains shown)
VH: QVQLQESGPGLVKPSETLSLTCTVSGGSISNYYWNWIRQSPGKGLEWIGDIYYSGSTNYNPSLKSRVTISVDTSKNQFSLKLSSVTTADTAVYYCARDGELANYYGSGSYQFYYYYGMDVWGQGTTVTVSS
VL: B3 VL with Q3L, F54L, G70E, Y94N, P96F, Q100P, E105D
notes: Fully human mAb from IgG2 XenoMouse mice; also called AM-1; antibody H
B5: AMH22/AML22 (antibody, IgG2, V domains shown)
VH: B1 VH with T53A
VL: B1 VL with A19V, Y36F, L46P, T56A
notes: Fully human mAb from IgG2 XenoMouse mice; also called AM-22; antibody I
B6: AMH11/AML11 (antibody, IgG2, V domains shown)
VH: QVQLVESGGGVVQPGRSLRLSCATSGITFSSYGMHWVRQAPGKGLEWVAVIWYDGSNKYYADSVKGRFTISRDNSKNTLYLQMNSLRAEDTAVYYCARDTKDYWGQGTLVTVSS
VL: EIVMTQSPATLSVSPGERATLSCRASQSVSSNLAWYQQKPGQAPRLLIYGASTRAAGIPARFSGGGSGTAFTLTISNLQSEDFAVYYCQHYINWPKWTFGQGTKVDIK
notes: Fully human mAb from IgG2 XenoMouse mice; also called AM-11; antibody A
B7: AMH15/AML15 (antibody, V domains shown)
VH: QVQLVESGGGVVQPGRSLRLSCAASGFTFSSYGMQWVRQAPGKGLEWVAVIWYDGNKKYYADSVKGRFTISRDNSKNTLYLQMNSLRAEDTAVYYCARGRVRDYYYGMDVWGQGTTVTVSS
VL: B1 VL with A19V, Y36F, L46P, T56A
notes: also called AM-15
B8: AMH14/AML14 (antibody, V domains shown)
VH: B1 VH
VL: B1 VL with Y36F, L46P, I58V
notes: Fully human mAb from IgG2 XenoMouse mice; Biotinylated in the Octet assay; also called AM-14; antibody K
B9: AMH21/AML21 (antibody, IgG2, V domains shown)
VH: EVQLVESGGGSVQPGGSLRLSCAASGFTFSSYSMNWVRQAPGKGLEWVSIISSRSSIIHYADSVKGRFTISRDNAKNSLYLQMNSLRDEDTAVYYCARPKVGGGMDVWGQGTTVTVSS
VL: DIQMTQSPSSLSASVGDRVTITCRASQGISNYLAWYQQKPGKFPELLIYAASTLQSGVPSRFSGSGSGTDFTLTISSLQPEDVATYYCQKYNRAPFTFGPGTKVDIK
notes: Fully human mAb from IgG2 XenoMouse mice; also called AM-21; antibody Q
B10: AMH13/AML13 (antibody, IgG2, V domains shown)
VH: B7 VH
VL: DIVMTQTPLSLSVTPGQPASIACKSSQSLLHSDGKTYLYWYLQKPGQPPQLLIYEVSTRFSGVPDRFSGSGSGTDFTLKISRVEAEDVGVFYCMQSIQLPLTFGGGTKVEIK
notes: Fully human mAb from IgG2 XenoMouse mice; also called AM-13
B11: AMH17/AML17 (antibody, V domains shown)
VH: B1 VH with S17A, S25T, F29L, R31S, T53A, N59K, R99K, Y102V
VL: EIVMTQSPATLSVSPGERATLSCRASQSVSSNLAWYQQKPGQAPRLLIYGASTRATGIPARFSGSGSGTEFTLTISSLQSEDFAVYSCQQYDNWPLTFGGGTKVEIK
notes: Fully human mAb from IgG2 XenoMouse mice; also called AM-17; antibody N
B12: AMH16/AML16 (antibody, IgG2, V domains shown)
VH: B1 VH with R31S, T53A, S55N, N59K, A79V, R99K, Y102V
VL: B1 VL with V29I, S31T, N32S, D50G, A51T, D70E, Y87F, N93I
notes: Fully human mAb from IgG2 XenoMouse mice; also called AM-16; antibody O
B13: AMH12/AML12 (antibody, IgG2, V domains shown)
VH: B1 VH with F29L, R31S, S55K, R99K, Y102V
VL: B1 VL with V29I, N32S, D50G, D70E, D82N
notes: Fully human mAb from IgG2 XenoMouse mice; also called AM-12; antibody M

The target of one test is Human IL-17RA full-length expressed on the surface of cells (human, UniProt Q96F46 33-866). Kind of test: cell-based or functional assay.
B1: the “IC50, HFF bioassay (ligand not named on the sheet)” value was about 107 nM.
On the same count and under the same terms, the result for B2 reads about 103 nM.

The target of a further test is T1, cynomolgus IL-17RA on cells (cynomolgus).
T1 construct: whole, on cells; also called CHO-cynoIL-17RA; cyno IL-17RA+ CHO cells
Put plainly: FACS, biotin-huIL-17A on cyno IL-17RA+ cells with non-clonal supernatant; lower = more inhibition.
The molecule B3 displayed an MFI of 9.
B4 registered an MFI of 11.
Same read-out and setting: the figure for B5 is 18.
Same read-out and setting: the figure for B6 is 9.

The target of another test is T1, cynomolgus IL-17RA on cells. Kind of test: FACS, biotin-huIL-17A on cyno IL-17RA+ CHO cells with non-clonal supernatant; lower = more inhibition.
Experimental: The anti-IL-17RA antibodies were characterized. Non-clonal hybridoma supernatants were prepared in volumes of 1-2 mls (the Ig concentrations were not determined for these supernatants).
On to B7, for which the MFI stood at 6.
Same read-out and setting: the figure for B8 is 10.
Same read-out and setting: the result for B9 reads 6.

For the next test the target is unchanged. Described as above. The source holds these as a separate data set.
Experimental: Non-clonal hybridoma supernatants were prepared in volumes of 1-2 mls (the Ig concentrations were not determined for these supernatants). […] Anti-IL-17RA non-clonal hybridomas were selected for sub-cloning based on their performance in the CHO-IL-17RA FACS assay and HFF bioassay.
In turn, B10 yielded an MFI of 6.
Regarding B11, the MFI amounted to 8.
B12 showed an MFI of 6.
Consider B13, for which the MFI came out at 6.
